In patent EP4491631A1 (Anaveon AG, dated 2025):

T1: IL-2R CD122-CD132 on Jurkat-PD1+ CD122+ cells (UniProt P14784 27-551; P31785 23-369)
T1 sequence (looked up) 1: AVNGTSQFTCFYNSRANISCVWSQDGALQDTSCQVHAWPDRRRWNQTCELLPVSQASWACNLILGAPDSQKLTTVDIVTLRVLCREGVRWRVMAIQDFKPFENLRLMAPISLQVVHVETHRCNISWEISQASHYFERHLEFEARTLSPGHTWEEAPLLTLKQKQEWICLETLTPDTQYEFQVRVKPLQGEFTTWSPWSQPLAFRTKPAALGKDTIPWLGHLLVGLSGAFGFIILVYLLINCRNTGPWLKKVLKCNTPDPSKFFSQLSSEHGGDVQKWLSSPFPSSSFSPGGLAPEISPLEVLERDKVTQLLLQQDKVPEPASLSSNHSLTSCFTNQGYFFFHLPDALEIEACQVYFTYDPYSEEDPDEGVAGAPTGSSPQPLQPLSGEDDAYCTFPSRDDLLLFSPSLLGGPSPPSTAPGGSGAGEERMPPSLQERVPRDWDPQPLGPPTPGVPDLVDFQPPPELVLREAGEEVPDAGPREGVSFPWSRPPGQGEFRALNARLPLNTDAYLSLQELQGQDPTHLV
T1 sequence (looked up) 2: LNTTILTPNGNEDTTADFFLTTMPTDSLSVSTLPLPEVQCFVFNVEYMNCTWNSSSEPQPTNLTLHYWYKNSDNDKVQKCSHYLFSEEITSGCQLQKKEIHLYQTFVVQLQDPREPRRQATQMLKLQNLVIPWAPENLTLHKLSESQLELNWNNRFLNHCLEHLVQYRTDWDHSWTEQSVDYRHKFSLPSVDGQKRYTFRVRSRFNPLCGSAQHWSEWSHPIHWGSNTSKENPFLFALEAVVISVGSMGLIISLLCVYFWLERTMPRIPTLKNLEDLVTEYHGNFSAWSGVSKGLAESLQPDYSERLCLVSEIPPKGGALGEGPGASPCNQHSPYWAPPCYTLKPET


Target: T1, IL-2R CD122-CD132 on Jurkat-PD1+ CD122+ …
Test: cell-based or functional assay

EC50 value for pSTAT5 induction [nM] | Binder
0.22 | GQM289 (bispecific antibody, human IgG1, kappa, lambda, L234A L235A) chain 1: EVQLLESGGGLVQPGGSLRLSCAASGFTFSINAMTWVRQAPGKGLEWVSTISGSGFSTYYADSLKGRFTISRDNSKNTLYLQMNSLRAEDTAVYYCAKEVYGDYWGQGTLVTVSSASTKGPSVFPLAPSSKSTSGGTAALGCLVKDYFPEPVTVSWNSGALTSGVHTFPAVLQSSGLYSLSSVVTVPSSSLGTQTYICNVNHKPSNTKVDKRVEPKSCDKTHTCPPCPAPEAAGGPSVFLFPPKPKDTLMISRTPEVTCVVVDVSHEDPEVKFNWYVDGVEVHNAKTKPREEQYNSTYRVVSVLTVLHQDWLNGKEYKCKVSNKALAAPIEKTISKAKGQPREPQVYTLPPSREEMTKNQVSLTCLVKGFYPSDIAVEWESNGQPENNYKTTPPVLDSDGSFFLTSKLTVDKSRWQQGNVFSCSVMHEALHNHYTQKSLSLSPGK chain 2: not shown chain 3: EVQLVQSGAEVKKPGESLKISCKGSGYAFTNYLIEWVRQMPGKGLEWMGVINPGSGGTNYNEKFKGQVTISADKSISTAYLQWSSLKASDTAMYYCARWRGEGYYAYFDVWGQGTTVTVSSASTKGPSVFPLAPSSKSTSGGTAALGCLVKDYFPEPVTVSWNSGALTSGVHTFPAVLQSSGLYSLSSVVTVPSSSLGTQTYICNVNHKPSNTKVDKRVEPKSCDKTHTCPPCPAPEAAGGPSVFLFPPKPKDTLMISRTPEVTCVVVDVSHEDPEVKFNWYVDGVEVHNAKTKPREEQYNSTYRVVSVLTVLHQDWLNGKEYKCKVSNKALAAPIEKTISKAKGQPREPQVYTLPPSREEMTKNQVSLYCLVKGFYPSDIAVEWESNGQPENNYKTTPPVLDSDGSFFLYSKLTVDKSRWQQGNVFSCSVMHEALHNHYTQKSLSLSPGK chain 4: not shown
0.24 | LTJ498 (bispecific antibody, human IgG1, lambda, L234A L235A) chain 1: EVQLLESGGGLVQPGGSLRLSCAASGFTFSINAMTWVRQAPGKGLEWVSTISGSGFSTYYADSLKGRFTISRDNSKNTLYLQMNSLRAEDTAVYYCAKEVYGDYWGQGTLVTVSSASTKGPSVFPLAPSSKSTSGGTAALGCLVKDYFPEPVTVSWNSGALTSGVHTFPAVLQSSGLYSLSSVVTVPSSSLGTQTYICNVNHKPSNTKVDKRVEPKSCDKTHTCPPCPAPEAAGGPSVFLFPPKPKDTLMISRTPEVTCVVVDVSHEDPEVKFNWYVDGVEVHNAKTKPREEQYNSTYRVVSVLTVLHQDWLNGKEYKCKVSNKALAAPIEKTISKAKGQPREPQVYTLPPSREEMTKNQVSLTCLVKGFYPSDIAVEWESNGQPENNYKTTPPVLDSDGSFFLTSKLTVDKSRWQQGNVFSCSVMHEALHNHYTQKSLSLSPGK chain 2: not shown chain 3: AIRLTQSPSSFSASTGDRVTITCKASQSVDYGGGNFHLRPRDLISNINVIVLELKGSETTFMCEYADETATIVEFLNRWITFSQSIISTLTPTSSSTKKTQLQLEHLLLDLQMILNGINNYKNPKLTRMLTFKFYMPKKATELKHLQCLEEELKPLEEVLNLAQSKGGGGDSYMNWYQQKPGKAPKLLIYAASNLESGVPSRFSGSGSGTDFTLTISSLQSEDFATYYCQQSNEDPYTFGGGTKVEIKGGGGSGGGGSGGGGSEVQLVQSGAEVKKPGESLKISCKGSGYAFTNYLIEWVRQMPGKGLEWMGVINPGSGGTNYNEKFKGQVTISADKSISTAYLQWSSLKASDTAMYYCARWRGEGYYAYFDVWGQGTTVTVSSGGGGSGGGGSEVQLLESGGGLVQPGGSLRLSCAASGFTFSINAMTWVRQAPGKGLEWVSTISGSGFSTYYADSLKGRFTISRDNSKNTLYLQMNSLRAEDTAVYYCAKEVYGDYWGQGTLVTVSSASTKGPSVFPLAPSSKSTSGGTAALGCLVKDYFPEPVTVSWNSGALTSGVHTFPAVLQSSGLYSLSSVVTVPSSSLGTQTYICNVNHKPSNTKVDKRVEPKSCDKTHTCPPCPAPEAAGGPSVFLFPPKPKDTLMISRTPEVTCVVVDVSHEDPEVKFNWYVDGVEVHNAKTKPREEQYNSTYRVVSVLTVLHQDWLNGKEYKCKVSNKALAAPIEKTISKAKGQPREPQVYTLPPSREEMTKNQVSLYCLVKGFYPSDIAVEWESNGQPENNYKTTPPVLDSDGSFFLYSKLTVDKSRWQQGNVFSCSVMHEALHNHYTQKSLSLSPGK
